Assay results reported in PMC4564947 (Nature structural & molecular biology, 2015).
Where “and” joins values, the source holds several entries; their conditions need not be identical. Equal values may be shown once.

Target: the molecule itself
Test: SEC

Protein | binding result
FLAG-tagged full-length wild-type CtIP purified from HEK-293T cells (natural protein) MNISGSSCGSPNSADTSSDFKDLWTKLKECHDREVQGLQVKVTKLKQERILDAQRLEEFFTKNQQLREQQKVLHETIKVLEDRLRAGLCDRCAVTEEHMRKKQQEFENIRQQNLKLITELMNERNTLQEENKKLSEQLQQKIENDQQHQAAELECEEDVIPDSPITAFSFSGVNRLRRKENPHVRYIEQTHTKLEHSVCANEMRKVSKSSTHPQHNPNENEILVADTYDQSQSPMAKAHGTSSYTPDKSSFNLATVVAETLGLGVQEESETQGPMSPLGDELYHCLEGNHKKQPFEESTRNTEDSLRFSDSTSKTPPQEELPTRVSSPVFGATSSIKSGLDLNTSLSPSLLQPGKKKHLKTLPFSNTCISRLEKTRSKSEDSALFTHHSLGSEVNKIIIQSSNKQILINKNISESLGEQNRTEYGKDSNTDKHLEPLKSLGGRTSKRKKTEEESEHEVSCPQASFDKENAFPFPMDNQFSMNGDCVMDKPLDLSDRFSAIQRQEKSQGSETSKNKFRQVTLYEALKTIPKGFSSSRKASDGNCTLPKDSPGEPCSQECIILQPLNKCSPDNKPSLQIKEENAVFKIPLRPRESLETENVLDDIKSAGSHEPIKIQTRSDHGGCELASVLQLNPCRTGKIKSLQNNQDVSFENIQWSIDPGADLSQYKMDVTVIDTKDGSQSKLGGETVDMDCTLVSETVLLKMKKQEQKGEKSSNEERKMNDSLEDMFDRTTHEEYESCLADSFSQAADEEEELSTATKKLHTHGDKQDKVKQKAFVEPYFKGDERETSLQNFPHIEVVRKKEERRKLLGHTCKECEIYYADMPAEEREKKLASCSRHRFRYIPPNTPENFWEVGFPSTQTCMERGYIKEDLDPCPRPKRRQPYNAIFSPKGKEQKT | binds

Target: the molecule itself
Test: SEC-MALS

Protein | stoichiometry N
Δ20-27 CtIP-NTD, human CtIP residues 18-145 with residues 20-27 deleted (domain or fragment) SDKECHDREVQGLQVKVTKLKQERILDAQRLEEFFTKNQQLREQQKVLHETIKVLEDRLRAGLCDRCAVTEEHMRKKQQEFENIRQQNLKLITELMNERNTLQEENKKLSEQLQQKIEND | 2
CtIP-cNTD, human CtIP residues 52-145 (domain or fragment) DAQRLEEFFTKNQQLREQQKVLHETIKVLEDRLRAGLCDRCAVTEEHMRKKQQEFENIRQQNLKLITELMNERNTLQEENKKLSEQLQQKIEND | 2
CtIP-cNTD-DM, C89A C92A double mutant of CtIP residues 52-145 (domain or fragment) DAQRLEEFFTKNQQLREQQKVLHETIKVLEDRLRAGLADRAAVTEEHMRKKQQEFENIRQQNLKLITELMNERNTLQEENKKLSEQLQQKIEND | 2
SDFKDLWTKLKECHDREVQGLQVKVTKLKQERILD (domain or fragment) [CtIP-nNTD, tetramerization domain of human CtIP, residues 18-52] | 4
SDFKDLWTKLKECHDREVQGLQVKVTKLKQERILD (domain or fragment) [CtIP-nNTD (residues 18-52) fused to a maltose-binding protein (MBP) tag] | 4
CtIP N-terminal domain (CtIP-NTD), human CtIP residues 18-145 (domain or fragment) SDFKDLWTKLKECHDREVQGLQVKVTKLKQERILDAQRLEEFFTKNQQLREQQKVLHETIKVLEDRLRAGLCDRCAVTEEHMRKKQQEFENIRQQNLKLITELMNERNTLQEENKKLSEQLQQKIEND | 4
CtIP-NTD-DM, C89A C92A double mutant of CtIP residues 18-145 (domain or fragment) SDFKDLWTKLKECHDREVQGLQVKVTKLKQERILDAQRLEEFFTKNQQLREQQKVLHETIKVLEDRLRAGLADRAAVTEEHMRKKQQEFENIRQQNLKLITELMNERNTLQEENKKLSEQLQQKIEND | 4
F20E CtIP-NTD, human CtIP residues 18-145 with F20E (domain or fragment) SDEKDLWTKLKECHDREVQGLQVKVTKLKQERILDAQRLEEFFTKNQQLREQQKVLHETIKVLEDRLRAGLCDRCAVTEEHMRKKQQEFENIRQQNLKLITELMNERNTLQEENKKLSEQLQQKIEND | 2 and 4
L27E CtIP-NTD, human CtIP residues 18-145 with L27E (domain or fragment) SDFKDLWTKEKECHDREVQGLQVKVTKLKQERILDAQRLEEFFTKNQQLREQQKVLHETIKVLEDRLRAGLCDRCAVTEEHMRKKQQEFENIRQQNLKLITELMNERNTLQEENKKLSEQLQQKIEND | 2
